Legend:
[1] = target: T1, NCAM Ig1 domain (Rattus norvegicus, UniProt P13596); assay: Real-time biomolecular interaction analysis (BIAlite surface plasmon resonance), Ig1 applied to immobilised dendrimer peptides; type: binding; conditions: dendrimer peptides immobilised on sensor chip CM5, 25° C., HBS; two independent experiments
T1 construct: The Ig1 domain of NCAM was produced as a recombinant protein in Pichia pastoris; made in house; host or cells: Pichia pastoris strain His 4 GS-115 (pHIL-S1 plasmid)
T1 sequence (P13596 20-111 limits assumed): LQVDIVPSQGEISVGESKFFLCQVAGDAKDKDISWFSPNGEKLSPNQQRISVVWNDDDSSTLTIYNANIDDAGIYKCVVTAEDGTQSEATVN
From the text: The Ig1 domain of NCAM was produced as a recombinant protein in Pichia pastoris. The cDNA fragment of rat NCAM was synthesised by PCR, and amplified cDNA was subcloned into an Xho I/Bam HI site of the pHIL-S1 plasmid (Invitrogen Corporation, San Diego, USA). An E. coli strain Top 10 F′ (Invitrogen Corporation, San Diego, USA) was used for transformation. The recombinant plasmid was linearised with Nsi I and used for transformation of Pichia pastoris strain His 4 GS-115 (Invitrogen Corporation, San Diego, USA). Transformation and selection was performed according to a Pichia Expression Kit manual supplied by the manufacturer. The recombinant protein was designated as Ig1 PP (Ig-like domain 1 produced in P. pastoris) The authenticity of Ig1 PP was secured by amino acid sequencing and MALDI-MS confirming the expected molecular weight of 11 kD. Cells were grown essentially according to the Pichia Expression Kit manual. After induction supernatant from growing cells was filtered through a […] filter, concentrated by ultrafiltration and purified by gel filtration using a Sephadex G-50 column (Pharmacia Biotech AB, Sweden) (Thomsen et al., 1996).
Real-time biomolecular interaction analysis was performed using a BIAlite instrument (Pharmacia Biosensor AB, Sweden). All experiments were performed at 25° C. using Hepes buffered saline (HBS: 10 mM Hepes pH 7.4, 150 mM NaCl, 3.4 mM EDTA, 0.005% v/v Surfactant P20 (Pharmacia Biosensor, Sweden) as running buffer. The flow rate was […]. Dendrimer peptides C3d, D3d and D4d (four peptide-monomers coupled to a backbone consisting of three lysines) were immobilised on a sensor chip CM5 (Pharmacia Biosensor AB, Sweden) using the following procedure: the chip was activated by […] 0.05 M N-hydroxysuccinimide, 0.2 M N-ethyl-N′-(dimethylaminopropyl)carbodiimide; peptides were immobilised using […] peptide solution in HBS at a concentration of 60 μg/ml; finally the chip was blocked by 35 μl 1 M ethanolamine hydrochloride pH 8.5. Binding of Ig1 to dendrimer peptides: […] of Ig1 or Ig1I at the indicated concentrations were applied. […]

[2] = test system: cells presenting NCAM or NCAM ligands; assay: Prevention of cell death (survival) of cells presenting NCAM or NCAM ligands; type: cell-based; conditions: general statement; data only in figures
Protocol: PC12 cells were differentiated by plating them in 96-well tissue culture plates in defined medium (DMEM) supplemented with NGF (50-100 ng/ml) and were normally used after 6-8 days of NGF treatment. NGF withdrawal was performed as follows: the medium was removed, and the cells were quickly rinsed twice with pre-warmed medium, and then re-fed with DMEM supplemented with C3d. After 2 days of incubation cells were assayed for cell survival by measuring reduction of a novel tetrazolium compound, MTS (Promega, USA), which is bioreduced by cells into a formazan that is soluble in tissue culture medium. The absorbance of the formazan at 490 nm was measured directly from 96 well assay plates without additional processing. The conversion of MTS into the aqueous soluble formazan was accomplished by dehydrogenase enzymes found in metabolically active cells. The quantity of formazan product as measured by the amount of 490 nm absorbance was directly proportional to the number of living cells in culture (Yao and Cooper, 1995; CellTiter 96 Aqueous non-radioactive cell proliferation assay, Promega, 1996; Eilers et al., 1998).
PC12 cells were plated in 96-well tissue culture plates in the absence of growth factors (serum starvation) for 6 days in DMEM supplemented with C3d and assayed for cell survival by reduction of MTS, as described above (Gollapudi and Oblinger, 1999; Williams and Doherty, 1999). […]

[3] = test system: cells presenting NCAM; conditions: by activating a signalling pathway identical to that activated by homophilic NCAM binding; cited from earlier work
[4] = test system: Hippocampal cells; assay: Aggregate cell cultures of hippocampal cells (aggregates counted after 24 h); type: cell-based, rat; conditions: ligand present during the aggregation of cells; quantified 24 h after seeding
Protocol: A variety of suitable fragments and variants of NCAM has been discussed above. To be able to identify candidate ligands capable of stimulating NCAM function, where the NCAM function means the function of the NCAM molecule, the inventors have established a simple cell culture system (aggregate cell cultures) that permits a quantitative evaluation of the effect of various ligands. Hippocampal cells are provided from rat embryos. The cells are grown in a defined medium and dissociated cells are seeded in microtiter plates. After 24 h, the, amount of aggregates are counted. Compounds to be tested are added to the cell suspension immediately before seeding of the cells in micro-wells. When NCAM Ig1 binding ligands are present during the aggregation of cells, smaller, but more numerous cell aggregates are seen when quantified 24 h after seeding of the cells. The inhibiting effect of the ligands results in a blockage of the formation of large aggregates from many small aggregates as the adhesion, properties of NCAM are blocked. Thus, small but more numerous cell aggregates are seen in the presence of active ligands.

Row | Substance | binding to the NCAM Ig1 domain [1] | preventing cell death [2] | stimulation of outgrowth [3] | inhibition of aggregation of hippocampal cells [4]
1 | D4d: Dendrimer of D4: four peptide-monomers coupled to a backbone consisting of three lysines (ARALNWGAKPK) | bind to the NCAM Ig1 domain |  |  | 
2 | ASKKPKRNIKA (listed as Homo sapiens) [C3] |  | capable of preventing cell death | stimulates outgrowth | inhibited aggregation
3 | D3d: Dendrimer of D3: four peptide-monomers coupled to a backbone consisting of three lysines (AKKERQRKDTQ) | bind to the NCAM Ig1 domain |  |  | 
4 | C3d: Dendrimer of C3: four peptide-monomers coupled to a backbone consisting of three lysines (ASKKPKRNIKA) | bind to the NCAM Ig1 domain |  |  | 
